Substrate in this series: CC1=CC(O/C=C(C)\C=C\C2=C(C)CCCC2(C)C)OC1=O
In words: LC-MS/MS of BSB formed by yeast microsomes, Michaelis-Menten fit. The format is biochemical, Marchantia paleacea. Conditions: rac-CL 0.25 to 33 μM, NADPH 500 μM, 28 °C, 10 min, microsomes of WAT11 yeast, overall two-step conversion CL to BSB via CLA.

B1: MpaMAX1 (Marchantia paleacea subsp. diptera) (protein)
chain: MITSMEGWTGVGALGSLVFMVVIMVYYFYPTWKVRHIPVPPYTWFLGHIPLLTKHQALCWTMLAKDYGPMYRFHVGRQPMVMVTDAELCRQVGLKLFKQVPNRSNPAMIEGSSVLKKALFFSRDEQWSGMKSILQPLFHSDKMNNYTPIMTQIVDELLERLRSVKEGEDVNISRLFQRLTLDVIGEVAFGIKFGLVLETPGPDEWLVQTTVKSIDALRMDAGAGVPLSTIVGTFFPILQKPFRSLLRMIPGTPEWVADGSDHALKLRLRQIQQEREELMRRNGSVSRVDSLSLLLNSSKLNKQNGKLLTQDYIGALTYELTLVGSETSSVTLSMLTYLLALHPECERKMLAEIDAFGPRDLPITTEDLETKFPYVDMVIKETMRKHTTTPVVAREASEDIELGGYHLPKGTWVWLVLEALQMNPKDFPEPEEFRPERFDENCDEAKTRHPYAFLPFGVGPRSCLGKRFAAQEVKLTVVRLYQNFTFTLSPLTKVPLETQFGIVVRPKHGVCVRVHPRWTRL
notes: cDNA in pYeDP60, expressed in yeast WAT11 (Saccharomyces cerevisiae); microsomal fraction
As to B1, the Km (in general, the substrate concentration at which the rate is half of its maximum) was 4.78 ± 1.22 µM.

These data come from PMC9270392, “An ancestral function of strigolactones as symbiotic rhizosphere signals” (Nature Communications, 2022).
